Measurements taken from paper PMC4854488 (Biochemistry, 2016).

Tests used:
[1] = target: T1, oxalate decarboxylase (OxDC) (Bacillus subtilis, UniProt O34714, DEL162-162); assay: X-ray crystal structure, […] Å; assay type: binding; settings: Co(II)-substituted ΔE162 variant; oxalate end-on (monodentate) on Co(II) in N-terminal domain; cocrystallised, well pH 9.5, 17 °C
T1 construct: C-terminal His6 tag kept, expressed in E. coli BL21(DE3), Mn-containing (Co(II)-substituted for the crystal; model residues 6-382)

purified protein = substrate: O=C(O)C(=O)O; assay: purified protein; settings: 25 °C
[2] = ΔE162 variant, decarboxylase activity, Mn enzyme (1.3 Mn/monomer), 100 mM citrate pH 4.2, 300 uM o-phenylenediamine, pH 4.2
[3] = ΔE162 variant, oxidase activity, Mn enzyme (1.3 Mn/monomer), 50 mM succinate pH 4.0, O2 co-substrate, pH 4.0
[4] = decarboxylase activity, Mn enzyme (1.4 Mn/monomer), 100 mM citrate pH 4.2, 300 uM o-phenylenediamine, pH 4.2
[5] = oxidase activity, Mn enzyme (1.4 Mn/monomer), 50 mM succinate pH 4.0, O2 co-substrate, pH 4.0
[6] = DENS variant, decarboxylase activity, Mn enzyme (1.6 Mn/monomer), 100 mM citrate pH 4.2, 300 uM o-phenylenediamine, pH 4.2
[7] = DDNS variant, decarboxylase activity, Mn enzyme (1.5 Mn/monomer), 100 mM citrate pH 4.2, 300 uM o-phenylenediamine, pH 4.2
[8] = DESN variant, decarboxylase activity, Mn enzyme (1.5 Mn/monomer), 100 mM citrate pH 4.2, 300 uM o-phenylenediamine, pH 4.2
[9] = DESN variant, oxidase activity, Mn enzyme (1.5 Mn/monomer), 50 mM succinate pH 4.0, O2 co-substrate, pH 4.0
[10] = DDSN variant, decarboxylase activity, Mn enzyme (1.5 Mn/monomer), 100 mM citrate pH 4.2, 300 uM o-phenylenediamine, pH 4.2

O=C(O)C(=O)O [oxalate]
X-ray crystal structure, 2.6 Å [1]: we observed an oxalate molecule bound within the N-terminal domain

B1: oxalate decarboxylase (OxDC) (Bacillus subtilis subsp. subtilis str. 168; DEL162-162) (protein)
chain: MKKQNDIPQPIRGDKGATVKIPRNIERDRQNPDMLVPPETDHGTVSNMKFSFSDTHNRLEKGGYAREVTVRELPISENLASVNMRLKPGAIRELHWHKEAEWAYMIYGSARVTIVDEKGRSFIDDVGEGDLWYFPSGLPHSIQALEEGAEFLLVFDDGSFSNSTFQLTDWLAHTPKEVIAANFGVTKEEISNLPGKEKYIFENQLPGSLKDDIVEGPNGEVPYPFTYRLLEQEPIESEGGKVYIADSTNFKVSKTIASALVTVEPGAMRELHWHPNTHEWQYYISGKARMTVFASDGHARTFNYQAGDVGYVPFAMGHYVENIGDEPLVFLEIFKDDHYADVSLNQWLAMLPETFVQAHLDLGKDFTDVLSKEKHPVVKKKCSK
Km (purified protein; [2]): 1.6 ± 0.7 mM | kcat (purified protein; [2]): 0.01 s⁻¹ | kcat/Km (purified protein; [2]): 5 M⁻¹ s⁻¹ | Km (purified protein; [3]): 3 ± 1 mM | kcat (purified protein; [3]): 0.05 s⁻¹ | kcat/Km (purified protein; [3]): 14 M⁻¹ s⁻¹

B2: oxalate decarboxylase (OxDC) (Bacillus subtilis subsp. subtilis str. 168) (protein)
chain: MKKQNDIPQPIRGDKGATVKIPRNIERDRQNPDMLVPPETDHGTVSNMKFSFSDTHNRLEKGGYAREVTVRELPISENLASVNMRLKPGAIRELHWHKEAEWAYMIYGSARVTIVDEKGRSFIDDVGEGDLWYFPSGLPHSIQALEEGAEFLLVFDDGSFSENSTFQLTDWLAHTPKEVIAANFGVTKEEISNLPGKEKYIFENQLPGSLKDDIVEGPNGEVPYPFTYRLLEQEPIESEGGKVYIADSTNFKVSKTIASALVTVEPGAMRELHWHPNTHEWQYYISGKARMTVFASDGHARTFNYQAGDVGYVPFAMGHYVENIGDEPLVFLEIFKDDHYADVSLNQWLAMLPETFVQAHLDLGKDFTDVLSKEKHPVVKKKCSK
Km (purified protein; [4]): 8 ± 1 mM | kcat (purified protein; [4]): 60 s⁻¹ | kcat/Km (purified protein; [4]): 5700 M⁻¹ s⁻¹ | Km (purified protein; [5]): 5.0 ± 0.2 mM | kcat (purified protein; [5]): 0.13 s⁻¹ | kcat/Km (purified protein; [5]): 19 M⁻¹ s⁻¹

B3: oxalate decarboxylase (OxDC) (Bacillus subtilis subsp. subtilis str. 168; S161D) (protein)
chain: MKKQNDIPQPIRGDKGATVKIPRNIERDRQNPDMLVPPETDHGTVSNMKFSFSDTHNRLEKGGYAREVTVRELPISENLASVNMRLKPGAIRELHWHKEAEWAYMIYGSARVTIVDEKGRSFIDDVGEGDLWYFPSGLPHSIQALEEGAEFLLVFDDGSFDENSTFQLTDWLAHTPKEVIAANFGVTKEEISNLPGKEKYIFENQLPGSLKDDIVEGPNGEVPYPFTYRLLEQEPIESEGGKVYIADSTNFKVSKTIASALVTVEPGAMRELHWHPNTHEWQYYISGKARMTVFASDGHARTFNYQAGDVGYVPFAMGHYVENIGDEPLVFLEIFKDDHYADVSLNQWLAMLPETFVQAHLDLGKDFTDVLSKEKHPVVKKKCSK
Km (purified protein; [6]): 10 ± 1 mM | kcat (purified protein; [6]): 63 s⁻¹ | kcat/Km (purified protein; [6]): 3900 M⁻¹ s⁻¹

B4: oxalate decarboxylase (OxDC) (Bacillus subtilis subsp. subtilis str. 168; E162D/S161D) (protein)
chain: MKKQNDIPQPIRGDKGATVKIPRNIERDRQNPDMLVPPETDHGTVSNMKFSFSDTHNRLEKGGYAREVTVRELPISENLASVNMRLKPGAIRELHWHKEAEWAYMIYGSARVTIVDEKGRSFIDDVGEGDLWYFPSGLPHSIQALEEGAEFLLVFDDGSFDDNSTFQLTDWLAHTPKEVIAANFGVTKEEISNLPGKEKYIFENQLPGSLKDDIVEGPNGEVPYPFTYRLLEQEPIESEGGKVYIADSTNFKVSKTIASALVTVEPGAMRELHWHPNTHEWQYYISGKARMTVFASDGHARTFNYQAGDVGYVPFAMGHYVENIGDEPLVFLEIFKDDHYADVSLNQWLAMLPETFVQAHLDLGKDFTDVLSKEKHPVVKKKCSK
Km (purified protein; [7]): 10 ± 2 mM | kcat (purified protein; [7]): 45 s⁻¹ | kcat/Km (purified protein; [7]): 2900 M⁻¹ s⁻¹

B5: oxalate decarboxylase (OxDC) (Bacillus subtilis subsp. subtilis str. 168; N163S/S161D/S164N) (protein)
chain: MKKQNDIPQPIRGDKGATVKIPRNIERDRQNPDMLVPPETDHGTVSNMKFSFSDTHNRLEKGGYAREVTVRELPISENLASVNMRLKPGAIRELHWHKEAEWAYMIYGSARVTIVDEKGRSFIDDVGEGDLWYFPSGLPHSIQALEEGAEFLLVFDDGSFDESNTFQLTDWLAHTPKEVIAANFGVTKEEISNLPGKEKYIFENQLPGSLKDDIVEGPNGEVPYPFTYRLLEQEPIESEGGKVYIADSTNFKVSKTIASALVTVEPGAMRELHWHPNTHEWQYYISGKARMTVFASDGHARTFNYQAGDVGYVPFAMGHYVENIGDEPLVFLEIFKDDHYADVSLNQWLAMLPETFVQAHLDLGKDFTDVLSKEKHPVVKKKCSK
Km (purified protein; [8]): 6 ± 1 mM | kcat (purified protein; [8]): 40 s⁻¹ | kcat/Km (purified protein; [8]): 4400 M⁻¹ s⁻¹ | Km (purified protein; [9]): 11 ± 2 mM | kcat (purified protein; [9]): 0.1 s⁻¹ | kcat/Km (purified protein; [9]): 11 M⁻¹ s⁻¹

B6: oxalate decarboxylase (OxDC) (Bacillus subtilis subsp. subtilis str. 168; E162D/N163S/S161D/S164N) (protein)
chain: MKKQNDIPQPIRGDKGATVKIPRNIERDRQNPDMLVPPETDHGTVSNMKFSFSDTHNRLEKGGYAREVTVRELPISENLASVNMRLKPGAIRELHWHKEAEWAYMIYGSARVTIVDEKGRSFIDDVGEGDLWYFPSGLPHSIQALEEGAEFLLVFDDGSFDDSNTFQLTDWLAHTPKEVIAANFGVTKEEISNLPGKEKYIFENQLPGSLKDDIVEGPNGEVPYPFTYRLLEQEPIESEGGKVYIADSTNFKVSKTIASALVTVEPGAMRELHWHPNTHEWQYYISGKARMTVFASDGHARTFNYQAGDVGYVPFAMGHYVENIGDEPLVFLEIFKDDHYADVSLNQWLAMLPETFVQAHLDLGKDFTDVLSKEKHPVVKKKCSK
Km (purified protein; [10]): 3 ± 1 mM | kcat (purified protein; [10]): 9 s⁻¹ | kcat/Km (purified protein; [10]): 2400 M⁻¹ s⁻¹
